From the supplement of paper PMC9112550, “Optimization of the antimicrobial peptide Bac7 by deep mutational scanning” (BMC Biology, 2022)

Tested on: Escherichia coli TOP10
Experiment: shrunken log2 fold change of peptide-encoding DNA abundance (4.5 h post-induction vs induction); higher = less antimicrobial activity (less host growth inhibition)
Conditions: time post-induction: 4.5 h; library: site-saturation at positions 5, 18, 19, 20
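Note: peptides expressed intracellularly from a pBAD plasmid library in pooled LB shake-flask culture, induced with 0.3% L-arabinose, DNA abundance read by NGS, three biological replicates, DESeq2 with apeglm shrinkage.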

| Sequence | shrunken log2 fold change |
| --- | --- |
| RRIRYRPPRLPRPRPRPEEMPRP | -0.0902 |
| RRIRYRPPRLPRPRPRPEGIPRP | -0.0155 |
| RRIRYRPPRLPRPRPRPEGLPRP | -0.0136 |
| RRIRYRPPRLPRPRPRPEHAPRP | 0.0635 |
| RRIRYRPPRLPRPRPRPEHQPRP | -0.464 |
| RRIRYRPPRLPRPRPRPEIKPRP | -0.114 |
| RRIRYRPPRLPRPRPRPEKRPRP | 0.00709 |
| RRIRYRPPRLPRPRPRPEKSPRP | -0.0559 |
| RRIRYRPPRLPRPRPRPEKYPRP | -0.00973 |
| RRIRYRPPRLPRPRPRPELGPRP | -0.00146 |
| RRIRYRPPRLPRPRPRPELVPRP | 0.25 |
| RRIRYRPPRLPRPRPRPEPEPRP | 0.0661 |
| RRIRYRPPRLPRPRPRPEPFPRP | 0.0898 |
| RRIRYRPPRLPRPRPRPERTPRP | 0.0654 |
| RRIRYRPPRLPRPRPRPESAPRP | -0.146 |
| RRIRYRPPRLPRPRPRPESSPRP | -0.0327 |
| RRIRYRPPRLPRPRPRPESWPRP | -0.0403 |
| RRIRYRPPRLPRPRPRPEVWPRP | 0.446 |
| RRIRYRPPRLPRPRPRPEWYPRP | -0.00146 |
| RRIRYRPPRLPRPRPRPEYYPRP | -0.0128 |
| RRIRYRPPRLPRPRPRPFCKPRP | -1.59 |
| RRIRYRPPRLPRPRPRPFCLPRP | -1.22 |
| RRIRYRPPRLPRPRPRPFCTPRP | -0.425 |
| RRIRYRPPRLPRPRPRPFDMPRP | -0.195 |
| RRIRYRPPRLPRPRPRPFENPRP | -0.257 |

| Sequence | shrunken log2 fold change |
| --- | --- |
| RRIRYRPPRLPRPRPRPFEVPRP | -0.0115 |
| RRIRYRPPRLPRPRPRPFFDPRP | 1.09 |
| RRIRYRPPRLPRPRPRPFHDPRP | -0.195 |
| RRIRYRPPRLPRPRPRPFHEPRP | -0.245 |
| RRIRYRPPRLPRPRPRPFHGPRP | 0.0221 |
| RRIRYRPPRLPRPRPRPFIGPRP | -1.58 |
| RRIRYRPPRLPRPRPRPFILPRP | -1.19 |
| RRIRYRPPRLPRPRPRPFIMPRP | -0.313 |
| RRIRYRPPRLPRPRPRPFKNPRP | -0.426 |
| RRIRYRPPRLPRPRPRPFKVPRP | -0.123 |
| RRIRYRPPRLPRPRPRPFLKPRP | -0.122 |
| RRIRYRPPRLPRPRPRPFMCPRP | -0.233 |
| RRIRYRPPRLPRPRPRPFMVPRP | -1.05 |
| RRIRYRPPRLPRPRPRPFNDPRP | -0.102 |
| RRIRYRPPRLPRPRPRPFPAPRP | -0.467 |
| RRIRYRPPRLPRPRPRPFPVPRP | -0.149 |
| RRIRYRPPRLPRPRPRPFQFPRP | 0.015 |
| RRIRYRPPRLPRPRPRPFQIPRP | -0.0359 |
| RRIRYRPPRLPRPRPRPFRLPRP | -0.0183 |
| RRIRYRPPRLPRPRPRPFTHPRP | -0.187 |
| RRIRYRPPRLPRPRPRPFTRPRP | -0.0174 |
| RRIRYRPPRLPRPRPRPFVPPRP | -0.285 |
| RRIRYRPPRLPRPRPRPFYIPRP | -1.26 |
| RRIRYRPPRLPRPRPRPFYLPRP | -0.955 |
| RRIRYRPPRLPRPRPRPGAGPRP | 0.0814 |

| Sequence | shrunken log2 fold change |
| --- | --- |
| RRIRYRPPRLPRPRPRPGCMPRP | -0.546 |
| RRIRYRPPRLPRPRPRPGCNPRP | -0.172 |
| RRIRYRPPRLPRPRPRPGDIPRP | -0.0107 |
| RRIRYRPPRLPRPRPRPGFRPRP | -0.322 |
| RRIRYRPPRLPRPRPRPGGMPRP | -0.297 |
| RRIRYRPPRLPRPRPRPGHCPRP | -0.0945 |
| RRIRYRPPRLPRPRPRPGIAPRP | -0.269 |
| RRIRYRPPRLPRPRPRPGINPRP | -0.227 |
| RRIRYRPPRLPRPRPRPGIRPRP | 0.0108 |
| RRIRYRPPRLPRPRPRPGKAPRP | -0.00206 |
| RRIRYRPPRLPRPRPRPGLHPRP | -0.265 |
| RRIRYRPPRLPRPRPRPGLRPRP | 0.0396 |
| RRIRYRPPRLPRPRPRPGRHPRP | -0.203 |
| RRIRYRPPRLPRPRPRPGSAPRP | -0.24 |
| RRIRYRPPRLPRPRPRPGSLPRP | -0.0848 |
| RRIRYRPPRLPRPRPRPGSYPRP | -0.349 |
| RRIRYRPPRLPRPRPRPGTSPRP | -0.0454 |
| RRIRYRPPRLPRPRPRPGVRPRP | 0.0103 |
| RRIRYRPPRLPRPRPRPGYCPRP | -0.235 |
| RRIRYRPPRLPRPRPRPGYKPRP | -0.978 |
| RRIRYRPPRLPRPRPRPGYVPRP | -1.05 |
| RRIRYRPPRLPRPRPRPHARPRP | -0.163 |
| RRIRYRPPRLPRPRPRPHDAPRP | -0.27 |
| RRIRYRPPRLPRPRPRPHDCPRP | -0.00448 |
| RRIRYRPPRLPRPRPRPHECPRP | 0.0244 |

| Sequence | shrunken log2 fold change |
| --- | --- |
| RRIRYRPPRLPRPRPRPHETPRP | -0.0345 |
| RRIRYRPPRLPRPRPRPHFCPRP | -0.428 |
| RRIRYRPPRLPRPRPRPHFYPRP | -0.662 |
| RRIRYRPPRLPRPRPRPHHWPRP | -0.892 |
| RRIRYRPPRLPRPRPRPHIHPRP | -0.745 |
| RRIRYRPPRLPRPRPRPHKKPRP | -0.0787 |
| RRIRYRPPRLPRPRPRPHKSPRP | -0.526 |
| RRIRYRPPRLPRPRPRPHMKPRP | -0.489 |
| RRIRYRPPRLPRPRPRPHNDPRP | -0.692 |
| RRIRYRPPRLPRPRPRPHNTPRP | -1.28 |
| RRIRYRPPRLPRPRPRPHPRPRP | -0.392 |
| RRIRYRPPRLPRPRPRPHPYPRP | -0.449 |
| RRIRYRPPRLPRPRPRPHTGPRP | -1.06 |
| RRIRYRPPRLPRPRPRPHTMPRP | -0.604 |
| RRIRYRPPRLPRPRPRPHVFPRP | -0.0822 |
| RRIRYRPPRLPRPRPRPHWCPRP | -0.0867 |
| RRIRYRPPRLPRPRPRPHYCPRP | -0.403 |
| RRIRYRPPRLPRPRPRPIADPRP | 0.0616 |
| RRIRYRPPRLPRPRPRPIAGPRP | -0.107 |
| RRIRYRPPRLPRPRPRPICQPRP | -0.087 |
| RRIRYRPPRLPRPRPRPIFAPRP | 0.159 |
| RRIRYRPPRLPRPRPRPIFDPRP | -0.737 |
| RRIRYRPPRLPRPRPRPIFLPRP | -0.246 |
| RRIRYRPPRLPRPRPRPIFVPRP | -0.418 |
| RRIRYRPPRLPRPRPRPIFWPRP | 0.0187 |

| Sequence | shrunken log2 fold change |
| --- | --- |
| RRIRYRPPRLPRPRPRPIFYPRP | -0.638 |
| RRIRYRPPRLPRPRPRPIGEPRP | -0.135 |
| RRIRYRPPRLPRPRPRPIGFPRP | 0.0062 |
| RRIRYRPPRLPRPRPRPIHWPRP | -0.182 |
| RRIRYRPPRLPRPRPRPIIAPRP | -1.18 |
| RRIRYRPPRLPRPRPRPIIIPRP | -0.161 |
| RRIRYRPPRLPRPRPRPIKNPRP | -0.275 |
| RRIRYRPPRLPRPRPRPIKPPRP | -0.0229 |
| RRIRYRPPRLPRPRPRPIKRPRP | -0.767 |
| RRIRYRPPRLPRPRPRPILLPRP | -0.322 |
| RRIRYRPPRLPRPRPRPILRPRP | -0.172 |
| RRIRYRPPRLPRPRPRPIMLPRP | -3.12 |
| RRIRYRPPRLPRPRPRPINAPRP | -0.469 |
| RRIRYRPPRLPRPRPRPINFPRP | -0.299 |
| RRIRYRPPRLPRPRPRPINIPRP | -1.21 |
| RRIRYRPPRLPRPRPRPIPCPRP | -0.156 |
| RRIRYRPPRLPRPRPRPIPRPRP | 0.0268 |
| RRIRYRPPRLPRPRPRPIQIPRP | -0.409 |
| RRIRYRPPRLPRPRPRPIQNPRP | -0.219 |
| RRIRYRPPRLPRPRPRPIQRPRP | -0.00865 |
| RRIRYRPPRLPRPRPRPIQTPRP | -0.499 |
| RRIRYRPPRLPRPRPRPIRFPRP | -0.0383 |
| RRIRYRPPRLPRPRPRPIRKPRP | -0.0667 |
| RRIRYRPPRLPRPRPRPIRNPRP | -1.17 |
| RRIRYRPPRLPRPRPRPIRSPRP | -0.214 |

| Sequence | shrunken log2 fold change |
| --- | --- |
| RRIRYRPPRLPRPRPRPITCPRP | 0.014 |
| RRIRYRPPRLPRPRPRPITLPRP | -0.323 |
| RRIRYRPPRLPRPRPRPITSPRP | 0.0314 |
| RRIRYRPPRLPRPRPRPIVQPRP | -0.121 |
| RRIRYRPPRLPRPRPRPIWHPRP | -1.23 |
| RRIRYRPPRLPRPRPRPIWLPRP | -0.175 |
| RRIRYRPPRLPRPRPRPIYPPRP | -0.559 |
| RRIRYRPPRLPRPRPRPKCMPRP | -0.841 |
| RRIRYRPPRLPRPRPRPKCNPRP | -0.533 |
| RRIRYRPPRLPRPRPRPKDNPRP | -0.75 |
| RRIRYRPPRLPRPRPRPKEKPRP | -0.0829 |
| RRIRYRPPRLPRPRPRPKFAPRP | -0.44 |
| RRIRYRPPRLPRPRPRPKGAPRP | 0.194 |
| RRIRYRPPRLPRPRPRPKHAPRP | -0.0577 |
| RRIRYRPPRLPRPRPRPKIHPRP | -1.18 |
| RRIRYRPPRLPRPRPRPKIPPRP | -0.21 |
| RRIRYRPPRLPRPRPRPKMPPRP | -0.206 |
| RRIRYRPPRLPRPRPRPKNAPRP | -0.186 |
| RRIRYRPPRLPRPRPRPKNHPRP | -0.919 |
| RRIRYRPPRLPRPRPRPKPQPRP | -0.115 |
| RRIRYRPPRLPRPRPRPKPRPRP | 0.515 |
| RRIRYRPPRLPRPRPRPKQCPRP | -0.17 |
| RRIRYRPPRLPRPRPRPKRGPRP | 0.00607 |
| RRIRYRPPRLPRPRPRPKSQPRP | -0.176 |
| RRIRYRPPRLPRPRPRPKSTPRP | -0.634 |
